Substitutions are numbered along the chain they refer to. Names may count otherwise. Read-outs that look alike come from different tables or passages of the source.
Experiments:
Assay type in all cases: cell-based
HEK-293T cells = test: Tacrolimus (FK506) response of FKBP13-AcGFP-mCherry constructs transiently transfected into HEK-293T cells, flow cytometry; details: for AcGFP stabilization / fluorescence signal in response to FK506: 0, 1 or 10 μM FK506, 24 hours; for Fold Change: tacrolimus response of FKBP13 DRD-AcGFP construct, Table 3
Description: The DRD in FKBP13-039 was a wildtype (WT) FKBP13 (i.e., a 98 amino acid fragment of SEQ ID NO: 1). […] The FKBP13-043, FKBP13-044, and FKBP13-045 constructs included DRD-genic mutations D90G, M54A and M96V, respectively, and three binding site mutations (Q72R, Q84E, and A117H).

Jurkat cells [1] = test: Tacrolimus dose response of FKBP13-AcGFP-mCherry constructs stably transduced into Jurkat cells, GFP MFI by flow cytometry; details: for Fold Change: tacrolimus dose response; for EC90 / Tacrolimus FC: tacrolimus, Table 14; for Tacrolimus FC: fold change
In short: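 GFP geometric MFI was read by flow cytometry in mCherry+ cells and curve-fitted against tacrolimus dose. Cells were Jurkat E6-1, lentivirus-transduced with FKBP13-AcGFP-mCherry fusion constructs until 10-25% mCherry-positive on day 5 post-transduction.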

Jurkat cells [2] = test: Sirolimus (rapamycin) dose response of FKBP13 constructs stably transduced into Jurkat cells, flow cytometry; details: rapamycin, Table 14; for Rapamycin FC: fold change
Protocol: Normalized EC50 values were calculated from the mCherry normalized GFP MFI values, which accounted for any differences in mCherry intensity between samples.

[3] = Example 4: dose response of FKBP constructs 160-255, Ec50, Ec90 and fold change (raw and normalized to mCherry); details: for FC (fold change): fold change during initial analysis
Protocol: Additional experiments were performed for constructs FKBP-160-292.

HEK293 cells = test: Tacrolimus dose response of FKBP13 constructs transiently transfected into HEK293 cells, Celigo Image Cytometer
Description: In another experiment, several FKBP13 DRD constructs were transiently transfected into HEK293 cells, as described above, and analyzed using a Celigo Image Cytometer (Nexcelom, Lawrence, MA).
To test the effects of other substitutions instead of methionine at residue number 54 and leucine at position 93 FKBP13 DRD constructs were generated and were transiently transfected into HEK293 cells, as described above, and analyzed using a Celigo Image Cytometer (Nexcelom, Lawrence, MA).
In another experiment, to explore the possibility of further truncating FKBP13, constructs (FKBP-044, FKBP-083, FKBP-084, FKBP-085, and FKBP-086) were transiently transfected into HEK293 cells, as described above, and analyzed using a Celigo Image Cytometer (Nexcelom, Lawrence, MA). A combination of DRD-genic M54A with truncation of the N-terminal histidine lowers basal (FKBP-083).
In another experiment, several constructs (FKBP-044, FKBP-092, FKBP-093, FKBP-094, FKBP-095, FKBP-096 and FKBP-097) designed to explore additional DRD-genic mutations were transiently transfected into HEK293 cells, as described above, and analyzed using a Celigo Image Cytometer (Nexcelom, Lawrence, MA).
Other constructs (FKBP-091, FKBP-098, FKBP-099, FKBP-100, and FKBP-101) were transiently transfected into HEK293 cells, as described above, and analyzed using a Celigo Image Cytometer (Nexcelom, Lawrence, MA).
(§1) In another experiment, several constructs (FKBP-091, FKBP-102, FKBP-103, FKBP-104, FKBP-105 and FKBP-106), designed to combine the binding site mutation identified in FKBP-091 with novel DRD-genic mutations, were transiently transfected into HEK293 cells, as described above, and analyzed using a Celigo Image Cytometer (Nexcelom, Lawrence, MA). […]
as §1, with “several other” for “several”, “FKBP-107, FKBP-108, FKBP-109, FKBP-110,” for “FKBP-102, FKBP-103, FKBP-104, FKBP-105”, “FKBP-111),” for “FKBP-106),”

[4] = Jurkat cells stably transduced (FIG. 10), Table 5
[5] = read-out: Tacrolimus EC90 (Norm), normalized
[6] = normalized, read-out: Rapamycin EC90 (Norm)
[7] = FKBP constructs 160-255, not normalized, read-out: EC90
[8] = normalized to mCherry, read-out: EC90 (Norm)

B1: FKBP-043: FKBP13 DRD Q72R, Q84E, A117H, D90G; SEQ ID NO: 6 (protein)
chain: HCPIKSRKGDVLHMHYTGKLEDGTEFDSSLPRNQPFVFSLGTGEVIKGWGQGLLGMCEGEKRKLVIPSELGYGERGHPPKIPGGATLVFEVELLKIER
modifications: Description of sequence: FKBP13-AcGFP-mCherry Fusion; Construct Name: FKBP-043; FKBP13 DRD in Construct : FKBP13 (mutated to match FKBP12 active site - Q72R Q84E A117H) (DRD - D90G)
With B1 the “AcGFP stabilization / fluorescence signal in response to FK506” value (HEK-293T cells; FIG. 1B) was “increased more effectively”, the DRD activity (HEK-293T cells; FIG. 1B) was “had DRD activity” and the Fold Change (HEK-293T cells) was 26.5.

B2: FKBP-041: FKBP13 DRD M54A; SEQ ID NO: 4 (protein)
chain: B1 chain with M14A, R32Q, E44Q, G50D, H77A
modifications: Description of sequence: FKBP13-AcGFP-mCherry Fusion; Construct Name: FKBP-041; FKBP13 DRD in Construct : FKBP13 (DRD - M54A)
Molecule B2 has a Fold Change (HEK-293T cells) of 7.8.

B3: FKBP-044: FKBP13 DRD Q72R, Q84E, A117H, M54A; SEQ ID NO: 7 (protein)
chain: B1 chain with M14A, G50D
modifications: Description of sequence: FKBP13-AcGFP-mCherry Fusion; Construct Name: FKBP-044; FKBP13 DRD in Construct : FKBP13 (mutated to match FKBP12 active site - Q72R Q84E A117H) (DRD - M54A)
With B3 the Fold Change (Jurkat cells [1]; Jurkat cells stably transduced (FIG. 4), Table 4) was 12.6, the “Fold Change” value (Jurkat cells [1]; [4]) was 11.805 and the “EC50 and fold-change characteristics” value (Jurkat cells [1]; tacrolimus top concentration 10 μM, 24 hr, FIG. 2) was “best EC50 and fold-change characteristics”. For the same molecule, the “AcGFP stabilization / fluorescence signal in response to FK506” value (HEK-293T cells; FIG. 1B) was “increased more effectively” and the Fold Change (HEK-293T cells) was 9.4.

B4: FKBP-187 (protein)
chain: B1 chain with M14A, L40G, V45R, G50D, H77W
modifications: Description of sequence: Construct Name: FKBP-187; Mutation(s): Q72R Q84E A117W V85R DRD M54A L80G
In the case of B4, the EC90 (Jurkat cells [1]; [5]) is reported as 21.3 µM, the EC90 (Jurkat cells [1]; read-out: Tacrolimus EC90) is reported as 14.5 µM and the “Tacrolimus FC” value (Jurkat cells [1]) is reported as 24. The EC90 (Jurkat cells [2]; read-out: Rapamycin EC90) was 5.31 µM, the “Rapamycin FC” value (Jurkat cells [2]) was 2.3 and the EC90 (Jurkat cells [2]; [6]) was 5.66 µM. For the same molecule, the EC90 [3, 7] was 14.5 µM, the “FC (fold change)” value [3] was 24.0 and the EC90 [3, 8] was 21.3 µM.

B5: FKBP-068: FKBP13 DRD Q72R, Q84E, A117H, M54S; SEQ ID NO: 24 (protein)
chain: B1 chain with M14S, G50D
modifications: Description of sequence: FKBP13-AcGFP-mCherry Fusion; Construct Name: FKBP-068; FKBP13 DRD in Construct : FKBP13 (mutated to match FKBP12 active site - Q72R Q84E A117H) (DRD - M54S)
In the case of B5, the “Fold Change” value (Jurkat cells [1]; [4]) is reported as 43.62 and the “performance / drug responsiveness in tacrolimus dose response” value (HEK293 cells; FIGS. 5, 6, 8) is reported as “closest in performance to the original M54A substitution”.

B6: FKBP-189 (protein)
chain: B1 chain with H13G, M14A, R32L, V45R, G50D, H77W
modifications: Description of sequence: Construct Name: FKBP-189; Mutation(s): Q72R Q84E A117W V85R DRD M54A H53G R72L
With B6 the EC90 (Jurkat cells [1]; [5]) was 30.1 µM, the EC90 (Jurkat cells [1]; read-out: Tacrolimus EC90) was 25.8 µM and the “Tacrolimus FC” value (Jurkat cells [1]) was 23. For the same molecule, the EC90 (Jurkat cells [2]; read-out: Rapamycin EC90) was 5.47 µM, the “Rapamycin FC” value (Jurkat cells [2]) was 2.5 and the EC90 (Jurkat cells [2]; [6]) was 5.53 µM. The EC90 [3, 7] was 25.8 µM, the “FC (fold change)” value [3] was 23.0 and the EC90 [3, 8] was 30.1 µM.

B7: FKBP-045: FKBP13 DRD Q72R, Q84E, A117H, M96V; SEQ ID NO: 8 (protein)
chain: B1 chain with G50D, M56V
modifications: Description of sequence: FKBP13-AcGFP-mCherry Fusion; Construct Name: FKBP-045; FKBP13 DRD in Construct : FKBP13 (mutated to match FKBP12 active site - Q72R Q84E A117H) (DRD - M96V)
For B7, the “AcGFP stabilization / fluorescence signal in response to FK506” value (HEK-293T cells; FIG. 1B) was “increased more effectively” and the Fold Change (HEK-293T cells) was 23.2.

B8: FKBP-039: FKBP13 (WT) fragment DRD-AcGFP-mCherry; SEQ ID NO: 2 (protein)
chain: B1 chain with R32Q, E44Q, G50D, H77A
modifications: Description of sequence: FKBP13-AcGFP-mCherry Fusion; Construct Name: FKBP-039; FKBP13 DRD in Construct : FKBP13 (WT)
For B8, the Fold Change (HEK-293T cells) was 4.9.

B9: FKBP-188 (protein)
chain: B1 chain with M14A, F38S, V45R, G50D, H77W
modifications: Description of sequence: Construct Name: FKBP-188; Mutation(s): Q72R Q84E A117W V85R DRD M54A F78S
With B9 the EC90 (Jurkat cells [1]; [5]) was 20.8 µM, the EC90 (Jurkat cells [1]; read-out: Tacrolimus EC90) was 16.6 µM and the “Tacrolimus FC” value (Jurkat cells [1]) was 20.5. The EC90 (Jurkat cells [2]; read-out: Rapamycin EC90) was 5.41 µM, the “Rapamycin FC” value (Jurkat cells [2]) was 2.6 and the EC90 (Jurkat cells [2]; [6]) was 5.83 µM. For the same molecule, the EC90 [3, 7] was 16.6 µM, the “FC (fold change)” value [3] was 20.5 and the EC90 [3, 8] was 20.8 µM.

B10: FKBP-040: FKBP13 DRD D90G; SEQ ID NO: 3 (protein)
chain: B1 chain with R32Q, E44Q, H77A
modifications: Description of sequence: FKBP13-AcGFP-mCherry Fusion; Construct Name: FKBP-040; FKBP13 DRD in Construct : FKBP13 (DRD - D90G)
B10 gave a Fold Change (HEK-293T cells) of 1.

B11: FKBP-042: FKBP13 DRD M96V; SEQ ID NO: 5 (protein)
chain: B1 chain with R32Q, E44Q, G50D, M56V, H77A
modifications: Description of sequence: FKBP13-AcGFP-mCherry Fusion; Construct Name: FKBP-042; FKBP13 DRD in Construct : FKBP13 (DRD - M96V)
B11 showed a Fold Change (HEK-293T cells) of 1.3.

B12: FKBP-083: FKBP13 trunc1 DRD Q72R, Q84E, A117H, M54A; SEQ ID NO: 33 (protein)
chain: CPIKSRKGDVLHAHYTGKLEDGTEFDSSLPRNQPFVFSLGTGEVIKGWDQGLLGMCEGEKRKLVIPSELGYGERGHPPKIPGGATLVFEVELLKIER
modifications: truncated (trunc1); Description of sequence: FKBP13-AcGFP-mCherry Fusion; Construct Name: FKBP-083; FKBP13 DRD in Construct : FKBP13 trunc1 (mutated to match FKBP12 active site - Q72R Q84E A117H) (DRD - M54A)
For B12, the Basal (HEK293 cells; FIG. 7) was “lowers basal”.
